B1: BIIB-9-579 (antibody, V domains shown)
VH: QVQLVQSGAEVKKPGASVKVSCKASGYTFTSYYMVWVRQAPGQGLEWMGIINPSGGSTSYAQKFQGRVTMTRDTSTSTVYMELSSLRSEDTAVYYCARGPWYSYYYMDVWGKGTTVTVSS
VL: DIQMTQSPSSLSASVGDRVTITCRASQSISSYLNWYQQKPGKAPKLLIYGASSLQSGVPSRFSGSGSGTDFTLTISSLQPEDFATYYCQQAFSFPFTFGGGTKVEIK
B2: BIIB-9-625 (antibody, V domains shown)
VH: QLQLQESGPGLVKPSETLSLTCTVSGGSISSSSYAWGWIRQPPGKGLEWIGSIYYSGSTYYNPSLKSRVTISVDTSKNQFSLKLSSVTAADTAVYYCARDRGWYTEVLDIWGQGTMVTVSS
VL: DIQMTQSPSSLSASVGDRVTITCRASQSISSYLNWYQQKPGKAPKLLIYAASSLQSGVPSRFSGSGSGTDFTLTISSLQPEDFATYYCQQSDTDPPTFGGGTKVEIK
B3: BIIB-9-1280 (antibody, V domains shown)
VH: QVQLVQSGAEVKKPGASVKVSCKASGYTFTSYYMVWVRQAPGQGLEWMGIINPSGGSTSYAQKFQGRVTMTRDTSTSTVYMELSSLRSEDTAVYYCARGPWYSYYYMDVWGKGTTVTVSS
VL: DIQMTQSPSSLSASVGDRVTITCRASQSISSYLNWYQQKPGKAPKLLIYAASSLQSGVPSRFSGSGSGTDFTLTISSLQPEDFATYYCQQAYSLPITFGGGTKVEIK
B4: BIIB-9-446 (antibody, V domains shown)
VH: QVQLVQSGAEVKKPGSSVKVSCKASGGTFSSYAISWVRQAPGQGLEWMGGIIPIFGTASYAQKFQGRVTITADESTSTAYMELSSLRSEDTAVYYCARGLEVGYYGYFDYWGQGTLVTVSS
VL: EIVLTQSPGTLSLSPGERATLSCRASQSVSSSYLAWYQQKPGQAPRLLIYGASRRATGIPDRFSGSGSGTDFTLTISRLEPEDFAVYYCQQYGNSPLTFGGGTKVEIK
B5: BIIB-9-884 (antibody, V domains shown)
VH: QLQLQESGPGLVKPSETLSLTCTVSGGSISSSDYYWGWIRQPPGKGLEWIGSIYYSGSTYYNPSLKSRVTISVDTSKNQFSLKLSSVTAADTAVYYCARSPRHKVRGPNWFDPWGQGTLVTVSS
VL: EIVLTQSPGTLSLSPGERATLSCRASQSVSSSYLAWYQQKPGQAPRLLIYGASSRATGIPDRFSGSGSGTDFTLTISRLEPEDFAVYYCQQYHLLPPTFGGGTKVEIK
B6: BIIB-9-627 (antibody, V domains shown)
VH: QVQLVQSGAEVKKPGASVKVSCKASGYTFTSYYMHWVRQAPGQGLEWMGIINPSGGSTSYAQKFQGRVTMTRDTSTSTVYMELSSLRSEDTAVYYCARADYDYWSGYGGLGMDVWGQGTTVTVSS
VL: not shown
B7: BIIB-9-452 (antibody, V domains shown)
VH: QVQLVQSGAEVKKPGASVKVSCKASGYTFTSYYMHWVRQAPGQGLEWMGIINPSGGSTSYAQKFQGRVTMTRDTSTSTVYMELSSLRSEDTAVYYCARDGRLSYTWDRWGQGTLVTVSS
VL: EIVMTQSPATLSVSPGERATLSCRASQSVSSNLAWYQQKPGQAPRLLIYGASTRATGIPARFSGSGSGTEFTLTISSLQSEDFAVYYCQQANNFPFTFGGGTKVEIK
B8: BIIB-9-469 (antibody, V domains shown)
VH: QVQLVQSGAEVKKPGASVKVSCKASGYTFTSYYMHWVRQAPGQGLEWMGIINPSGGSTSYAQKFQGRVTMTRDTSTSTVYMELSSLRSEDTAVYYCARDLGYGRSYDFDLWGRGTLVTVSS
VL: EIVMTQSPATLSVSPGERATLSCRASQSVSSNLAWYQQKPGQAPRLLIFGASTRATGIPARFSGSGSGTEFTLTISSLQSEDFAVYYCQQSNNFPFTFGGGTKVEIK
B9: BIIB-9-889 (antibody, V domains shown)
VH: QLQLQESGPGLVKPSETLSLTCTVSGGSISSSSYYWGWIRQPPGKGLEWIGSIYYSGSTYYNPSLKSRVTISVDTSKNQFSLKLSSVTAADTAVYYCARDVGWYTEYFDLWGRGTLVTVSS
VL: EIVMTQSPATLSVSPGERATLSCRASQSVSSNLAWYQQKPGQAPRLLIYGASTRATGIPARFSGSGSGTEFTLTISSLQSEDFAVYYCQQAFNWPPTFGGGTKVEIK
B10: BIIB-9-882 (antibody, V domains shown)
VH: QVQLVQSGAEVKKPGASVKVSCKASGYTFTSYYMHWVRQAPGQGLEWMGIINPSGGSTSYAQKFQGRVTMTRDTSTSTVYMELSSLRSEDTAVYYCARGPTDSSGYLDMDVWGKGTTVTVSS
VL: EIVMTQSPATLSVSPGERATLSCRASQSVSSNLAWYQQKPGQAPRLLIFGASTRATGIPARFSGSGSGTEFTLTISSLQSEDFAVYYCQQHDNFPPTFGGGTKVEIK
B11: BIIB-9-616 (antibody, V domains shown)
VH: QVQLVQSGAEVKKPGASVKVSCKASGYTFTSYYMHWVRQAPGQGLEWMGIINPSGGSTSYAQKFQGRVTMTRDTSTSTVYMELSSLRSEDTAVYYCARGGSKYFFDLWGRGTLVTVSS
VL: EIVMTQSPATLSVSPGERATLSCRASQSVSSSLAWYQQKPGQAPRLLIYGASTRATGIPARFSGSGSGTEFTLTISSLQSEDFAVYYCQQADNFPFTFGGGTKVEIK
B12: BIIB-9-566 (antibody, V domains shown)
VH: QVQLVQSGAEVKKPGASVKVSCKASGYTFTSYYMVWVRQAPGQGLEWMGIINPSGGSTSYAQKFQGRVTMTRDTSTSTVYMELSSLRSEDTAVYYCARVPTYRYSYLAFDIWGQGTMVTVSS
VL: EIVMTQSPATLSVSPGERATLSCRASQSVSSSLAWYQQKPGQAPRLLIYGASTRATGIPARFSGSGSGTEFTLTISSLQSEDFAVYYCQQHDNWPPTFGGGTKVEIK
B13: BIIB-9-1282 (antibody, V domains shown)
VH: QVQLVQSGAEVKKPGASVKVSCKASGYTFTSYYMVWVRQAPGQGLEWMGIINPSGGSTSYAQKFQGRVTMTRDTSTSTVYMELSSLRSEDTAVYYCARVPTYRYSYLAFDIWGQGTMVTVSS
VL: EIVMTQSPATLSVSPGERATLSCRASQSVSSNLAWYQQKPGQAPRLLIYGASTRATGIPARFSGSGSGTEFTLTISSLQSEDFAVYYCQQHNHLPITFGGGTKVEIK
B14: BIIB-9-419 (antibody, V domains shown)
VH: QVQLVQSGAEVKKPGASVKVSCKASGYTFTSYYMHWVRQAPGQGLEWMGIINPSGGSTSYAQKFQGRVTMTRDTSTSTVYMELSSLRSEDTAVYYCAREPTFYASYFDLWGRGTLVTVS
VL: EIVMTQSPATLSLSPGERATLSCRASQSVSSYLAWYQQKPGQAPRLLIYDSSNRATGIPARFSGSGSGTDFTLTISSLEPEDFAVYYCQQVSTHPYTFGGGTKVEIK
B15: BIIB-9-1273 (antibody, V domains shown)
VH: QVQLVQSGAEVKKPGASVKVSCKASGYTFTSYYMHWVRQAPGQGLEWMGIINPSGGSTSYAQKFQGRVTMTRDTSTSTVYMELSSLRSEDTAVYYCARDTGGYAFDIWGQGTLVTVSS
VL: EIVLTQYPATLSLSPGERATLSCRASQSVSSYLAWYQQKPGQAPRLLIYDASNRATGIPARFSGSGSGTDFTLTISSLEPEDFAVYYCQQSANFPFTFGGGTKVEIK

The experiment has as its target free FIXa (activated Factor IX) (UniProt P00740 47-191; P00740 227-461). Put plainly: BLI. Background: In BLI a coated tip is dipped into the sample, and binding shifts an interference pattern.
In the case of B1, the dissociation constant Kd amounted to 11.3 nM. For B2, the affinity, expressed as Kd, was 11.3 nM. In other words, the double-digit nanomolar range. For the molecule B3, the Kd was 51.7 nM. B4 had a dissociation constant (Kd) of 17.5 nM. The molecule B5 came in with a Kd of 1.79 nM. B6: the Kd amounted to 233 nM. This Kd is about 130-fold higher than that of the molecule before. The figure for B7 is 11.7 nM. Take B8: the affinity, expressed as Kd, was 13.3 nM.

Regarding B9, the dissociation constant Kd came out at 40.7 nM. Compared with the last molecule, the Kd is about 3.1-fold higher. In turn, B10 had a Kd of 2.31 nM. In turn, B11 displayed a dissociation constant (Kd) of 16.8 nM. In the case of B12, the Kd was determined as 21.4 nM.

B13 showed a dissociation constant (Kd) of 43.9 nM. Molecule B14 displayed a Kd of 21.1 nM. For B15, binding was put at a Kd of 20.9 nM.

One may read the Kd as the free concentration of one partner at which half of the binding sites on the other are occupied at equilibrium, for simple one-to-one binding. Low readings indicate higher affinity, high ones lower affinity.

Source of the values: patent US20230192896A1 (published 2023).
